pKd: −log10 of the molar value.
Target: SARS-CoV-2 receptor binding domain, native (501N) (SARS-CoV-2) (UniProt P0DTC2)
Test: BLI, RBD immobilised on AR2G biosensor, 1:1 fit

**Q.** “AZD1061 as tested by BLI (Fab by the footnote of Table 12)” was tested. Which pKd did it give?
**A.** 8.98

**Q.** “REGN10987 as tested by BLI (Fab by the footnote of Table 12)” was tested. Which pKd did it give?
**A.** 8.41

**Q.** “AZD8895 as tested by BLI (Fab by the footnote of Table 12)” was tested. Which pKd did it give?
**A.** 8.83

**Q.** “REGN10933 as tested by BLI (Fab by the footnote of Table 12)” was tested. Which pKd did it give?
**A.** 8.74

Target: SARS-CoV-2 spike receptor binding domain (native RBD) (SARS-CoV-2) (UniProt P0DTC2)
Test: not given

**Q.** With AZD8895 (antibody) as the substance, how does the pKd read?
**A.** 8.83

**Q.** REGN10933 (antibody) was tested. Which pKd did it give?
**A.** 8.74

**Q.** How did the pKd turn out when REGN10987 (antibody) was run?
**A.** 8.41

**Q.** AZD1061 (antibody) was tested. Which pKd did it give?
**A.** 8.98

From patent US20240043507A1
